Laboratory results as given in IntAct's records for PubMed 12354775.

B1: Protein naked cuticle (Drosophila melanogaster (Fruit fly)), Q9VVV9 (parent)
chain: MAGNIVKWWKHKILGGYKQFSVQECTTDSEELMYHQVRASSSCSAPPDLLLVSERDNNIQLRSPVVNIITTPPGNASGAGSKQQSHHQTNHHSSGRSHPGHTAHPQDVSSGGSHSKHLRISSTSNGKHGKYSNMQQQLPQDEDVVDAAATMQQQQHTGHAHSRHLHHHKEERIRLEEFTCDVSVEGGKSSQPLQFSFTFYDLDGHHGKITKDDIVGIVYTIYESIGKSVVVPHCGSKTINVRLTVSPEGKSKSQPVVPVPVAAGFSSSHASKLKKLPTGLAAMSKPLAGGGVGSGGASALTTSAGNRRQHRYRPRKLIKSDDEDDDSNSEKEKDAAHAPAADQPSGSGTKATGKSHHHQSQSARYHQKNNSRAEQCCTEQNTPDNGHNTYENMLNLKCCKPEVDQVDCPSHRQHHQSHPNHQMRQQDIYMKQATQRVKMLRRARKQKYQDHCLETRQRSLSVGNDSACPNRHLQLQQPPVGHPQPQSLNHKSASGSPPLGVGGGGDMMLDGVQLRQPRPHSLTPHQHQQQNQQQQQQQRKSAECWKSALNRNDLISIIRESMEKNRLCFQLNGKPQANVSPIRQPAAQQQPQQQQRQRCNTGSKIPTLITNHSPVAQQSPLSCSPPTAEPTTPSIPAAPPAIEVNGQQHHPTHPTHPSHHNHHEHPQPHIPIYHQQLAINPAVLAAQQTHNTAHNKLNLCGYDSFLHATICGGGAAAHSPPATPSNVATVQPIPKKSQKNLLQGYQRLEQSQQQQQQQRSSKDYKNYGNLIYAKLSEQLQQKDREQRRQRHKQQQHQMLQDQPKDASRSEQRPPTSNSSSAGSKIYGDAVECAHLLASEEEDLPPSPQLTSTPSKVVSTDTLIDLNDDVGEAVAEAVTEGGKQSLEAEESGQQVEVELDTSASSSMIHRYVHEHIHHHYHHFKEQQDV

Variants of: B1
Settings: with dsh_drome dsh

effect of a mutation on the interaction	Variant
decreasing interaction	D201A
decreasing interaction	D213V
